From patent US20160002357A1

Columns and labels:
[1] = molecular target: human P-cadherin expressed on the cell surface (human) (UniProt P22223); experiment: cell ELISA, CHO-huPcad cells
[2] = molecular target: human P-cadherin expressed on the cell surface (human) (UniProt P22223); experiment: cell ELISA, SW480-huPcad cells
huP-cad-ECD (human) = huP-cad-ECD (human) (UniProt P22223); experiment: ELISA, recombinant protein
[3] = molecular target: huP-cad-ECD biotinylated (human) (UniProt P22223); experiment: ELISA, recombinant protein
huP-cad-ECD biotinylated (human), sequence (P22223 108-654): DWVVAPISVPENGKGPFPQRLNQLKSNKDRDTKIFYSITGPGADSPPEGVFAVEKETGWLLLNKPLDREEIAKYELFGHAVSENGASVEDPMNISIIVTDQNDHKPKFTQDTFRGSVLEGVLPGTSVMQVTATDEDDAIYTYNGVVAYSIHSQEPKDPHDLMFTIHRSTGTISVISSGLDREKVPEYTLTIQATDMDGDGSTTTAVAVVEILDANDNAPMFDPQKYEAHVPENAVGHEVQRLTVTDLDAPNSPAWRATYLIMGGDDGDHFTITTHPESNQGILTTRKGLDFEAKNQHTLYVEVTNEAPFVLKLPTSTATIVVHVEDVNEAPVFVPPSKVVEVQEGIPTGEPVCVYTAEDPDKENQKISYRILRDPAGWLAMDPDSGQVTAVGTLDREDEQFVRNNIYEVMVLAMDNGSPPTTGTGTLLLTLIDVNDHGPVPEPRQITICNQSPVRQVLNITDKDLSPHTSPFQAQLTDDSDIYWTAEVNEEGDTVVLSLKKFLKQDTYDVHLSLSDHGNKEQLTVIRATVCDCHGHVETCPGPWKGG

muP-cad-ECD (murine) = muP-cad-ECD (murine) (UniProt P10287); experiment: ELISA, recombinant protein
muP-cad-ECD (murine), sequence (P10287 100-647): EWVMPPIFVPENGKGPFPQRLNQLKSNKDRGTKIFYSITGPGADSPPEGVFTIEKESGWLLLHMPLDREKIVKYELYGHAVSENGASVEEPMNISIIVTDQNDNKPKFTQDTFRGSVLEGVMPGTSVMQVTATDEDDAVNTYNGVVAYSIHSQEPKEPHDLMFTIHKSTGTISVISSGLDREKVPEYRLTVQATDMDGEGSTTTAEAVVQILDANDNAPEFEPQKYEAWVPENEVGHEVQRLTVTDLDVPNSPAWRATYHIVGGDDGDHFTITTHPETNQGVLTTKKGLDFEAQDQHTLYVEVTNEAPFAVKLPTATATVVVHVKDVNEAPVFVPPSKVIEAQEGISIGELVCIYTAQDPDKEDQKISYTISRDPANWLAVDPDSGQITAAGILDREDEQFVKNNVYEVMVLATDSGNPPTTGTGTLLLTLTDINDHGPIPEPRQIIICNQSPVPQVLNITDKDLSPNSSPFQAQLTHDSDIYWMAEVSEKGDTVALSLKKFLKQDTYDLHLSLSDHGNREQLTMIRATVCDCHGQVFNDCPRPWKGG

[4] = molecular target: human P-cadherin expressed on the cell surface (human) (UniProt P22223); experiment: cell ELISA, H1650 cells
[5] = molecular target: human P-cadherin, cell surface expressed (human) (UniProt P22223); experiment: flow cytometry, PE-labeled mAb, SUM149_Luc cells
human P-cadherin, cell surface expressed (human), sequence (P22223 108-829): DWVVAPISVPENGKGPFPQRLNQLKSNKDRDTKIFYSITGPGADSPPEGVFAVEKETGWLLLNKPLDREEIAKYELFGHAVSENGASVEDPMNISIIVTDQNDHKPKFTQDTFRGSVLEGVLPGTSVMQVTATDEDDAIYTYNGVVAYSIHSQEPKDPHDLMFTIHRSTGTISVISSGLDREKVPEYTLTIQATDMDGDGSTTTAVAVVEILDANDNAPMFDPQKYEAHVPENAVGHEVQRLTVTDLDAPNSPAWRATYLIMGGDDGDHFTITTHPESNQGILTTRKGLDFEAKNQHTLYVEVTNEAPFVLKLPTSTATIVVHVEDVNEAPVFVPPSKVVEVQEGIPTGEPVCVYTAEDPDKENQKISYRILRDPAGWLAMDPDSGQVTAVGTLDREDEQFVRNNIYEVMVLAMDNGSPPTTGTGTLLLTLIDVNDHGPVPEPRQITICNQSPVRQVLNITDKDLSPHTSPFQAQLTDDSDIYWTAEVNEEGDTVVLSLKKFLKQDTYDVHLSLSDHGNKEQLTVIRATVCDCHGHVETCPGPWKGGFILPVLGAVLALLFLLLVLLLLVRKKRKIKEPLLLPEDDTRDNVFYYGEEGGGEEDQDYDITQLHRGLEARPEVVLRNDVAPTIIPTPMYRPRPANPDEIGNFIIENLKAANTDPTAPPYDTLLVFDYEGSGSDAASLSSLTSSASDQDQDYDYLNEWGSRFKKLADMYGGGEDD

[6] = molecular target: human P-cadherin, cell surface expressed (human) (UniProt P22223); experiment: quantitative flow cytometry (QuantiBRITE PE), H322_Luc cells
[7] = molecular target: human P-cadherin, cell surface expressed (human) (UniProt P22223); experiment: quantitative flow cytometry (QuantiBRITE PE), Ls174T cells
[8] = molecular target: human P-cadherin, cell surface expressed (human) (UniProt P22223); experiment: flow cytometry, PE-labeled mAb, Ls174T_Luc cells
[9] = molecular target: human P-cadherin, cell surface expressed (human) (UniProt P22223); experiment: flow cytometry, PE-labeled mAb, H1650_Luc cells
[10] = molecular target: human P-cadherin, cell surface expressed (human) (UniProt P22223); experiment: quantitative flow cytometry (QuantiBRITE PE), H1975_Luc cells
[11] = molecular target: human P-cadherin, cell surface expressed (human) (UniProt P22223); experiment: flow cytometry, PE-labeled mAb, Colo205_Luc cells
[12] = molecular target: human P-cadherin, cell surface expressed (human) (UniProt P22223); experiment: flow cytometry, PE-labeled mAb, SW620 cells
[13] = molecular target: human P-cadherin, cell surface expressed (human) (UniProt P22223); experiment: quantitative flow cytometry (QuantiBRITE PE), SW620_Luc cells
[14] = molecular target: human P-cadherin, cell surface expressed (human) (UniProt P22223); experiment: quantitative flow cytometry (QuantiBRITE PE), LoVo_Luc cells
[15] = molecular target: human P-cadherin, cell surface expressed (human) (UniProt P22223); experiment: flow cytometry, PE-labeled mAb, SW620_Luc cells
[16] = molecular target: human P-cadherin, cell surface expressed (human) (UniProt P22223); experiment: quantitative flow cytometry (QuantiBRITE PE), BT20_Luc cells
[17] = molecular target: human P-cadherin, cell surface expressed (human) (UniProt P22223); experiment: quantitative flow cytometry (QuantiBRITE PE), SW480 cells
[18] = molecular target: human P-cadherin, cell surface expressed (human) (UniProt P22223); experiment: flow cytometry, PE-labeled mAb, HCT116 cells
[19] = molecular target: human P-cadherin, cell surface expressed (human) (UniProt P22223); experiment: flow cytometry, PE-labeled mAb, SW480 cells
[20] = molecular target: human P-cadherin, cell surface expressed (human) (UniProt P22223); experiment: quantitative flow cytometry (QuantiBRITE PE), SUM149_Luc cells
[21] = molecular target: human P-cadherin, cell surface expressed (human) (UniProt P22223); experiment: flow cytometry, PE-labeled mAb, HCT116_Luc cells
[22] = molecular target: human P-cadherin, cell surface expressed (human) (UniProt P22223); experiment: flow cytometry, PE-labeled mAb, SW480_Luc cells
[23] = molecular target: human P-cadherin, cell surface expressed (human) (UniProt P22223); experiment: quantitative flow cytometry (QuantiBRITE PE), Colo205_Luc cells
[24] = molecular target: human P-cadherin, cell surface expressed (human) (UniProt P22223); experiment: flow cytometry, PE-labeled mAb, LoVo_Luc cells
[25] = molecular target: human P-cadherin, cell surface expressed (human) (UniProt P22223); experiment: quantitative flow cytometry (QuantiBRITE PE), H1650_Luc cells
[26] = molecular target: human P-cadherin, cell surface expressed (human) (UniProt P22223); experiment: flow cytometry, PE-labeled mAb, H1975_Luc cells
[27] = molecular target: human P-cadherin, cell surface expressed (human) (UniProt P22223); experiment: quantitative flow cytometry (QuantiBRITE PE), HCT116 cells
[28] = molecular target: human P-cadherin, cell surface expressed (human) (UniProt P22223); experiment: flow cytometry, PE-labeled mAb, HT29_Luc cells
[29] = molecular target: human P-cadherin, cell surface expressed (human) (UniProt P22223); experiment: quantitative flow cytometry (QuantiBRITE PE), Ls174T_Luc cells
[30] = molecular target: human P-cadherin, cell surface expressed (human) (UniProt P22223); experiment: flow cytometry, PE-labeled mAb, H322_Luc cells
[31] = molecular target: human P-cadherin, cell surface expressed (human) (UniProt P22223); experiment: quantitative flow cytometry (QuantiBRITE PE), SW620 cells
[32] = molecular target: human P-cadherin, cell surface expressed (human) (UniProt P22223); experiment: quantitative flow cytometry (QuantiBRITE PE), SUM149 cells
[33] = molecular target: human P-cadherin, cell surface expressed (human) (UniProt P22223); experiment: flow cytometry, PE-labeled mAb, SUM149 cells
[34] = molecular target: human P-cadherin, cell surface expressed (human) (UniProt P22223); experiment: quantitative flow cytometry (QuantiBRITE PE), HT29_Luc cells
[35] = molecular target: human P-cadherin, cell surface expressed (human) (UniProt P22223); experiment: quantitative flow cytometry (QuantiBRITE PE), HCT116_Luc cells
[36] = molecular target: human P-cadherin, cell surface expressed (human) (UniProt P22223); experiment: flow cytometry, PE-labeled mAb, BT20_Luc cells
[37] = molecular target: human P-cadherin, cell surface expressed (human) (UniProt P22223); experiment: quantitative flow cytometry (QuantiBRITE PE), SW480_Luc cells
[38] = molecular target: human P-cadherin, cell surface expressed (human) (UniProt P22223); experiment: flow cytometry, PE-labeled mAb, Ls174T cells
[39] = molecular target: human P-cadherin, cell surface expressed (human) (UniProt P22223); experiment: flow cytometry, PE-conjugated mAb, SUM149_Luc cells
[40] = molecular target: human P-cadherin, cell surface expressed (human) (UniProt P22223); experiment: flow cytometry, PE-conjugated mAb, LoVo_Luc cells
[41] = molecular target: human P-cadherin, cell surface expressed (human) (UniProt P22223); experiment: flow cytometry, PE-conjugated mAb, Colo205_Luc cells
[42] = molecular target: human P-cadherin, cell surface expressed (human) (UniProt P22223); experiment: flow cytometry, PE-conjugated mAb, SW620 cells
[43] = molecular target: human P-cadherin, cell surface expressed (human) (UniProt P22223); experiment: flow cytometry, PE-conjugated mAb, H1650_Luc cells
[44] = molecular target: human P-cadherin, cell surface expressed (human) (UniProt P22223); experiment: flow cytometry, PE-conjugated mAb, SW620_Luc cells
[45] = molecular target: human P-cadherin, cell surface expressed (human) (UniProt P22223); experiment: flow cytometry, PE-conjugated mAb, BT20_Luc cells
[46] = molecular target: human P-cadherin, cell surface expressed (human) (UniProt P22223); experiment: flow cytometry, PE-conjugated mAb, H322_Luc cells
[47] = molecular target: human P-cadherin, cell surface expressed (human) (UniProt P22223); experiment: flow cytometry, PE-conjugated mAb, HCT116_Luc cells
[48] = molecular target: human P-cadherin, cell surface expressed (human) (UniProt P22223); experiment: flow cytometry, PE-conjugated mAb, H1975_Luc cells
[49] = molecular target: human P-cadherin, cell surface expressed (human) (UniProt P22223); experiment: flow cytometry, PE-conjugated mAb, SW480_Luc cells
[50] = molecular target: human P-cadherin, cell surface expressed (human) (UniProt P22223); experiment: flow cytometry, PE-conjugated mAb, Ls174T_Luc cells
[51] = molecular target: human P-cadherin, cell surface expressed (human) (UniProt P22223); experiment: flow cytometry, PE-conjugated mAb, Ls174T cells
[52] = molecular target: human P-cadherin, cell surface expressed (human) (UniProt P22223); experiment: flow cytometry, PE-conjugated mAb, HCT116 cells
[53] = molecular target: human P-cadherin, cell surface expressed (human) (UniProt P22223); experiment: flow cytometry, PE-conjugated mAb, SW480 cells
[54] = molecular target: human P-cadherin, cell surface expressed (human) (UniProt P22223); experiment: flow cytometry, PE-conjugated mAb, SUM149 cells
[55] = molecular target: human P-cadherin, cell surface expressed (human) (UniProt P22223); experiment: flow cytometry, PE-conjugated mAb, HT29_Luc cells

human P-cadherin expressed on the cell surface (human), sequence (P22223 108-829): as above
huP-cad-ECD (human), sequence (P22223 108-654): as the sequence (P22223 108-654) above

## anti-P-cadherin clinical mAb PF-03732010 (antibody)
[1]
  EC50: 329 pM
[2]
  EC50: 166 pM
huP-cad-ECD (human)
  EC50: 1940 pM
[3]
  EC50: 18.8 pM
muP-cad-ECD (murine)
  EC50: 2330 pM
[4]
  EC50: 209 pM

## anti-human P-cadherin mAb PF-03732010, phycoerythrin (PE) labeled (antibody)
[5]
  MFI: 3720
[6]
  ABC (antibodies bound per cell) (antibodies bound per cell): 16600
[7]
  ABC (antibodies bound per cell) (antibodies bound per cell): 4160
[8]
  MFI: 290
[9]
  MFI: 7960
[10]
  ABC (antibodies bound per cell) (antibodies bound per cell): 15400
[11]
  MFI: 357
[12]
  MFI: 297
[13]
  ABC (antibodies bound per cell) (antibodies bound per cell): 715
[14]
  ABC (antibodies bound per cell) (antibodies bound per cell): 5800
[15]
  MFI: 276
[16]
  ABC (antibodies bound per cell) (antibodies bound per cell): 24300
[17]
  ABC (antibodies bound per cell) (antibodies bound per cell): 12700
[18]
  MFI: 8030
[19]
  MFI: 2470
[20]
  ABC (antibodies bound per cell) (antibodies bound per cell): 17000
[21]
  MFI: 5660
[22]
  MFI: 1260
[23]
  ABC (antibodies bound per cell) (antibodies bound per cell): 874
[24]
  MFI: 1390
[25]
  ABC (antibodies bound per cell) (antibodies bound per cell): 37600
[26]
  MFI: 3160
[27]
  ABC (antibodies bound per cell) (antibodies bound per cell): 43800
[28]
  MFI: 787
[29]
  ABC (antibodies bound per cell) (antibodies bound per cell): 929
[30]
  MFI: 3230
[31]
  ABC (antibodies bound per cell) (antibodies bound per cell): 1120
[32]
  ABC (antibodies bound per cell) (antibodies bound per cell): 15400
[33]
  MFI: 2870
[34]
  ABC (antibodies bound per cell) (antibodies bound per cell): 2420
[35]
  ABC (antibodies bound per cell) (antibodies bound per cell): 26400
[36]
  MFI: 5240
[37]
  ABC (antibodies bound per cell) (antibodies bound per cell): 5300
[38]
  MFI: 986

## control mouse IgG1 mAb (Biolegend), PE conjugated (antibody)
[39]
  MFI: 213
[40]
  MFI: 175
[41]
  MFI: 173
[42]
  MFI: 88
[43]
  MFI: 254
[44]
  MFI: 125
[45]
  MFI: 225
[46]
  MFI: 242
[47]
  MFI: 229
[48]
  MFI: 373
[49]
  MFI: 151
[50]
  MFI: 94
[51]
  MFI: 222
[52]
  MFI: 239
[53]
  MFI: 171
[54]
  MFI: 68
[55]
  MFI: 282
